According to the DeepSol protein solubility set:

Experiment: soluble on expression in E. coli; label from the status in PepcDB or PDB records

Soluble on expression in E. coli, not soluble:
MGSDKIHHHHHHMIPLFDLTRQYERIRGEILNAIDKLISSGNVILGENVRRLEEEIASFTGVKHGVGVASGSDALLIALRAMGVEKGDTVVTTPYTFFATASAPYRLGARVIFVDVDESTFNMDLNQLEHVLKKEKVKAIIPVHLFGRTVDLEALSFLREKYGVMILEDCAQSMGSEWKFSSGEIRKSGSVGDAAIFSFFPTKNLGTYGDGGMIVTNSDEIAEESRILRVHGARKKYFHEKVGYNSRLDEIHAAILRVKLRYLERWTEERTRVARTYQKLFEEKKLPVVYPRVEEKGFRYHVFHQYVVLFENEEVRERVREGLKERGIQTAIYYPLPLHLQKCFRDLGYQEGDFPVAESLSKRSLALPMFPELRDDEIKEVVDTIALFL
MGSDKIHHHHHHMIPYNQSSVSTLQTKERKIDVFSVEGNVDNETVKSFGEEWTAFDSFNETEIYNAGDNYFDIVPETILKHITNALDVGCGTGRWSYYLSEKVGFIECIDPSEAVIAASSLLSGKNNIRISKAGVDNIPFADGTFDFVFSLGVLHHVPDTKKAVHACVQKLKMNGHILLYLYYNLENRGLIFKTLFHLSNSLRWMVSKLPGAIKRFVCDLLAIVIYMPFVIVSRILIKLNLAASVVSRVPLSWYADKSFNIIRNDSLDRFGTPLEQRFSKQQITDMLIHAGCTDIVFADNAPFWRVIAKKK
MGSDKIHHHHHHMIQHKPDLIFLDINLPDINGIDFAEQVQSILPEVHIVFITAYDEYAVKAFELNAIDYVMKPVQRDRLNRTINRITDRKTVEPLRSQTDSKIISCFQTLHFQKGSEIGKAEPIDVNWRTAKARELFAYLVQHRKQPVRKDVLLEFFWPESDVKKGYAQLYSAIYQIRKMLDSLQMNSTVVSFDKSYKLHLNGTKLDVEEWERELRQLPNITEDTLPSYRRLLETYKGDYLAEEAYLWAENERERLRTLYHSTFNKVTTYYLECGYYTDAITLCQRVQTLHPLMETSYFLLMQVYAKMGDNHSVKSQYEKLNHVLEAEYGIHTSDSIENWYNEWKKQLQ
MGSDKIHHHHHHMIRFENISKQNSHRILFLDSSAALNRGEKIGLVGPNGAGKTTLFRMITGEEVPDAGQVSIEKQVSIGYFNQDVGEMSGRSAVAEVMDGAGPVSSVAAEMAELEAAMCDPDRDDMDAVVERYGEVQARFEELGGYELEGRAREVLAGLSFSQEMMDGDVGALSGGWKMRVALGRILLMRPDAMLLDEPSNHLDIESLIWLEEFLKGYDGALLMTSHDREFLNRIVTKIIEIDGGSLNTYSGDYAFFERQRAQNEKQQQAQFERQQAMLAKEIKFIERFKARASHAAQVQSRVKKLDKIERFEPPRRRQTVSFDFPPAPRSGDDVAVFKSVHKGYGSRAIYQGLDLIIRRKERWCVMGVNGAGKSTLLKLVAGAADPDSGTVTVGASVKMGYFSQHAMELLDGERTVYESLEDRFPQANQGSLRTLAGCFGFSGDDVEKKCRVLSGGEKARLVMAIMLYNPPNFLVLDEPTNHLDLDTKQMLIAALANYEGTMLFVSHDRHFLAALSNRVLELTPEGVHQYSGGYTEYVARTGHEAPGLRS
MGSDKIHHHHHHMIRSTLSSWREYLTPITHKSTFLTTGQITPEEFVQAGDYLCHMFPTWKWNEESSDISYRDFLPKNKQFLIIRKVPCDKRAEQCVEVEGPDVIMKGFAEDGDEDDVLEYIGSETEHVQSTPAGGTKDSSIDDIDELIQDMEIKEEDENDDTEEFNAKGGLAKDMAQERYYDLYIAYSTSYRVPKMYIVGFNSNGSPLSPEQMFEDISADYRTKTATIEKLPFYKNSVLSVSIHPCKHANVMKILLDKVRVVRQRRRKELQEEQELDGVGDWEDLQDDIDDSLRVDQYLIVFLKFITSVTPSIQHDYTMEGW
MGSDKIHHHHHHMISDSISKRRSIRKYKNQSISHETIEKIIEAGINAPSSKNRQPWRFVVITEKEKESMLKAMSKGIQNEINDNGLLPGSRQHIAGANYTVEIMKQAPVTIFILNILGKSPLEKLSPEERFYEMANMQSIGAAIQNMSLTAVELGLGSLWICDVYFAYRELCEWLNTDSQLVAAISLGYPDEEPSRRPRLQLSDVTEWR
MGSDKIHHHHHHMIVNLSRLGKSGTGMWQYSIKFLTALREIADVDAIICSKVHADYFEKLGYAVVTVPNIVSNTSKTSRLRPLVWYVYSYWLALRVLIKFGNKKLVCTTHHTIPLLRNQTITVHDIRPFYYPDSFIQKVYFRFLLKMSVKRCKHVLTVSYTVKDSIAKTYNVDSEKISVIYNSVNKSDFIQKKEKENYFLAVGASWPHKNIHSFIKNKKVWSDSYNLIIVCGRTDYAMSLQQMVVDLELKDKVTFLHEVSFNELKILYSKAYALVYPSIDEGFGIPPIEAMASNTPVIVSDIPVFHEVLTNGALYVNPDDEKSWQSAIKNIEQLPDAISRFNNYVARYDFDNMKQMVGNWLAESK
